Where a chain is given by its changes, count along the chain named. No end group written: not given here.

Experiment [1] relates to fXIIa. The conditions noted are these: without affecting hemostasis parameters; cited from earlier work.
Experiment [2] has as its target T1, fXIa (Homo sapiens, UniProt P03951).
T1 construct: factor XI into its active form, factor XIa (fXIa)
Kind of experiment: Chromogenic test of protease inhibition in buffer, fXIa (substrate S-2366). In kind it is biochemical. Particulars: buffer solution, summary of Table 2. How it is done: In order to assess selectivity of the fXIIa inhibition by the polypeptide comprising the sequence of the infestin-4 mutant MutB, its inhibitory activity in buffer solution against the purified coagulation factors was determined. The polypeptide's activity was compared with the known fXIIa inhibitors: CTI, infestin-4, infestin-4-based mutant Mut15, LCTI-III. […] The standard deviation amounted to about 50% of the average value; each value was measured by performing 2-3 repeats.
(§1) To determine the inhibition activity of such proteins as MutB, CTI, Inf4, Mut15, and LCTI-III as related to different coagulation proteases in a buffer, the chromogenic test was used: the mixture of protease and inhibitor was incubated in the wells of the plate for 15 minutes at 37° C., after which the chromogenic substrate solution was added to the mixture, and the protease activity was measured as the rate of chromogenic product formation at 37° C.
(§2) Chromogenic substrates included a p-nitroanilide group cleaved by the corresponding proteases. After cleavage of the p-nitroanilide group from the substrate molecule, the group absorption spectrum changes, and the change of concentration of such product within time can be detected at the light wavelength of 405 nm using a plate spectrophotometer. To build a dependence curve of the protease activity from the inhibitor concentration, different inhibitor concentrations were added into several samples with the same protease concentration. After that, the inhibitor concentration able to decrease the protease activity by 50% (IC50) was determined. The inhibition constant Ki was calculated using the Cheng-Prusoff equation (Ki=IC50/(1+S/KM)), where S is the initial substrate concentration, KM is the Michaelis-Menten constant of the substrate to the protease.
Native infestin-4 and its mutants MutB and Mut15 used here were fusion proteins with thioredoxin I E. coli containing polyhisticline clusters. […]

Experiment [3] relates to contact-activated coagulation. In words: APTT test in platelet free plasma of a healthy donor (kaolin-cephalin activation). The format is biochemical, human. The conditions noted are these: 10 μM inhibitor in PFP; 45 sec without inhibitor. How it is done:
The assessment of activity of the polypeptide comprising the sequence of an infestin-4 mutant MutB by its inhibition of the contact-activated coagulation shall be considered further with a reference to FIG. 1. Native infestin-4 and mutants MutB and Mut15 were added into 3 separate samples of platelet free plasma (PFP) of a healthy donor, with subsequent measuring time of contact-activated clotting in the APTT test.
Blood plasma from healthy donors was processed according to standard protocols of blood collection for coagulation assays (Collection, Transport, and Processing of Blood Specimens for Testing Plasma-Based Coagulation Assays and Molecular Hemostasis Assays; Approved Guideline Fifth Edition by Clinical and Laboratory Standards Institute (CLSI) H21-A5 Vol. 28 No. 5). 0.38% sodium citrate was added into blood to block the calcium ions.
The APTT test was administered using the reagent kits “Coagulo-test” (Scientific-production association Renam, Moscow, Russia) and different concentrations of the following contact activation inhibitors: native infestin-4, MutB, and Mut15. To do that, 50 microliters of blood plasma from a healthy donor were mixed with 5.6 microliters of a 10× solution of different inhibitor concentrations and incubated for 15 minutes at 37° C. Then, according to the “Coagulo-test” manual, 25 microliters of the mixture were transferred into the cuvette of the coagulometer Helena-C2, with addition of 25 microliters of kaolin-cephalin mixture activating fXII in blood plasma. After incubation at 37° C. for 3 minutes, 25 microliters of the calcium chloride solution in the initial concentration of 25 mM was added, and the time of fibrin clot formation in the coagulometer cuvette was determined photometrically.
APTT dependences on concentrations of native infestin-4, MutB and Mut15 obtained in the same way as in Example 1, are shown on FIG. 1.

In experiment [4] the target is fXa (Homo sapiens, UniProt P00742). Particulars: Campos et al. 2004, FEBS Lett. 577:512-516; read-out: inhibition constant Ki against fXa; cited from earlier work.
Chain of fXa (Homo sapiens, UniProt P00742) (P00742 235-488 limits assumed): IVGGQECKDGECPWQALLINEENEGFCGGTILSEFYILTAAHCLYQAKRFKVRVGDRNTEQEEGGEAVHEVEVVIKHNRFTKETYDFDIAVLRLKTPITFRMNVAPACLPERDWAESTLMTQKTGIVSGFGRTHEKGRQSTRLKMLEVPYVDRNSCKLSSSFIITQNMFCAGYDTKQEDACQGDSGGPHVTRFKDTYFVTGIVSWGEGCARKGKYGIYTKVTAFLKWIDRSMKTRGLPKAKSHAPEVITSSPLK
Chain of fXa (Homo sapiens, UniProt P00742) (P00742 41-179 partner limits assumed): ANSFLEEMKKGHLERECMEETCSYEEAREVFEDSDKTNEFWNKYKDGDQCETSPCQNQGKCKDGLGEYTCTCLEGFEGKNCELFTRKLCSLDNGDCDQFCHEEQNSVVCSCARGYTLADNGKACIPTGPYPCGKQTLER
The target of experiment [5] is T2, factor XIIa (UniProt P00748 20-615, limits assumed).
T2 construct: also called fXIIa
T2 sequence (looked up): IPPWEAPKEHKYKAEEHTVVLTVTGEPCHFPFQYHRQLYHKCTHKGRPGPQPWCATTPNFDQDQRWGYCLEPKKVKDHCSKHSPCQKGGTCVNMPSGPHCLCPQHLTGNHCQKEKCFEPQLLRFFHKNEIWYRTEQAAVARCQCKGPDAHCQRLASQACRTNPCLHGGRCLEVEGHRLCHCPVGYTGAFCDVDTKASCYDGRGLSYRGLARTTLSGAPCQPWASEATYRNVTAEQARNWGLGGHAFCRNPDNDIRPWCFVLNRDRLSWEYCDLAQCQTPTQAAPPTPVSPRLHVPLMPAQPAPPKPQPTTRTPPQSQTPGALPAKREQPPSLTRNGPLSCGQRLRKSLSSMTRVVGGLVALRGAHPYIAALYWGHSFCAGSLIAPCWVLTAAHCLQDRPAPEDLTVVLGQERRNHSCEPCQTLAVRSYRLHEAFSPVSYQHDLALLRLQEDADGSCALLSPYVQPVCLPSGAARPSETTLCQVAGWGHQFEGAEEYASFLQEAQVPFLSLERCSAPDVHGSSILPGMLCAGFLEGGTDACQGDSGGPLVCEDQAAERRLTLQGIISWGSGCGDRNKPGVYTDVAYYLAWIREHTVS
Kind of experiment: chromogenic test (S-2302), IC50 converted by Cheng-Prusoff. How it is done:
as §1, §2

The target in experiment [6] is T3, fXa (UniProt P00742 41-179; P00742 235-488, limits assumed).
T3 construct: also called factor Xa
T3 sequence (P00742 41-179 limits assumed, form in doubt, chain 1 of 2): as the sequence (P00742 41-179 partner limits assumed) above
T3 sequence (P00742 235-488 limits assumed, form in doubt, chain 2 of 2): as the sequence (P00742 235-488 limits assumed) above
In words: chromogenic test (S-2765), IC50 converted by Cheng-Prusoff. Here is the method:
as §1, §2

The target in experiment [7] is T4, factor XIa (UniProt P03951 19-625).
T4 construct: also called fXIa
In words: chromogenic test (S-2366), IC50 converted by Cheng-Prusoff. How it is done:
as §1, §2

As for “Inf4: domain 4 of the protein infestin from the midgut of Triatoma infestans, Kazal-type fXIIa inhibitor; PDB 2ERW (EVRNPCACFRNYVPVCGSDGKTYGNPCMLNCAAQTKVPGLKLVHEGRCQRSNVEQF; left off: large carriers; small tags and cut ends) [reference compound]”, in experiment [1], the “effect in the thrombosis model in vivo” value is reported as “prevents vascular occlusion”. In experiment [2], the “inhibition of fXIa (in words)” value was “do not inhibit”. Moreover, the APTT in experiment [3] was determined as 120 s. For the same molecule, in experiment [4], the Ki is 0.053 µM.

B1: native infestin-4, fusion protein with thioredoxin I E. coli containing polyhistidine clusters (other)
chain: EVRNPCACFRNYVPVCGSDGKTYGNPCMLNCAAQTKVPGLKLVHEGRCQRSNVEQF
notes: It says MutB differs from it at positions 9, 12 and 14 only; also called Inf4; not shown: thioredoxin I of E. coli, fusion partner; polyhistidine clusters
In the case of B1, the figures for the Ki in experiment [5] and in experiment [6] were 0.001 µM and 2 µM, respectively.

B2: infestin-4 mutant MutB, fusion protein with thioredoxin I E. coli containing polyhistidine clusters (other, not shown: large carriers; small tags and cut ends)
chain: B1 chain with F9T, Y12F, P14A
modifications: cysteine pairing not given here; also: fusion with thioredoxin I and polyhistidine clusters, not given here
In turn, B2 returned a Ki in experiment [5] of 0.001 µM.

B3: Luffa cylindrica trypsin inhibitor, LCTI-III (peptide)
peptide: RICPRILMECSSDSDCLAECICLENGFCG
notes: Chemically synthesised
For the molecule B3, the inhibition constant Ki in experiment [5] came out at 0.015 µM; in experiment [7], 30 µM.

For orientation: Ki means a dissociation constant, usually derived from enzyme kinetics or from competition with a known ligand.

The values are drawn from patent publication US10006080B2, “High-selectivity contact activation inhibitor based on infestin-4” (OBSCHESTVO S OGRANICHENNOY OTVETSTVENNOSTYU …, priority 2013, dated 2018).
